Test: NaCl-induced aggregation method (adsorption of GBP1 on the surface of GNPs, UV-Vis)
Format: physicochemical
Experimental: In order to investigate a minimum concentration of GBP1 required for complete adsorption on the surface of gold nanoparticles (GNPs), since it is known that salts such as NaCl induce aggregation of gold and other nanoparitices (H.M.L. M. Y. Lin et al, Nature, 339, 1989, 360-362), an NaCl-induced aggregation method was used, and concentration of GBP1 adsorbed on the surface of GNPs was analyzed.
A variety of concentrations of GBP1 were added to 0.5 mL of GNP solution (O.D.=1.0, D=10 nm) to form a mixture, followed by standing for 10 minutes at room temperature. Next, 10% NaCl solution was added to the mixture so as to have a final concentration of 0.5% in order to induce aggregation of GNPs, followed by standing for 10 minutes at room temperature. Subsequently, in order to protect additional aggregation, 0.1% BSA was added to the resultant, followed by standing for 10 minutes at room temperature. Finally, aggregation degree of GNPs was measured in a wavelength range of 220 to 700 nm by UV-Vis spectrophotometer, and the measurement results are shown in FIG. 1.

GBP1: synthetic gold binding peptide 1, amino acid sequence (SEQ ID No. 1): MHGKTQATSGTIQS (GBP1)
GBP1 concentration at which aggregation of GNPs is prevented (0.5 mL GNP solution (O.D.=1.0, D=10 nm), 0.5% NaCl final, room temperature): more than 10 μg/ml | main surface plasmon band of the GNP solution (red-shifted) (GBP1 concentration of 10 μg/ml or less, in the presence of NaCl): 525 nm

Reference: patent publication US20140314668A1, “TECHNETIUM-99M LABELED COMPLEX OF GOLD NANOPARTICLE-GOLD BINDING PEPTIDES, AND METHOD OF MAKING AND USING THE SAME” (Korea Atomic Energy Research Institute, priority 2013, published 2014)
